Assay results: PMC3597688 (Nucleic Acids Research, 2013)
Values joined by “and” are separate entries in the source; they are usually repeats but may differ in a detail not shown here. Identical values can stand only once.

How the values were obtained:
[1] = target: the molecule itself; assay: negative-stain electron microscopy and electron tomography
SEC = target: the molecule itself; assay: SEC

| Protein | stoichiometry N [1] | stoichiometry N (SEC) |
| --- | --- | --- |
| ssoMCM F540A mutant (full length) (natural protein, Sulfolobus solfataricus, UniProt Q9UXG1 1-686, looked up) MEIPSKQIDYRDVFIEFLTTFKGNNNQNKYIERINELVAYRKKSLIIEFSDVLSFNENLAYEIINNTKIILPILEGALYDHILQLDPTYQRDIEKVHVRIVGIPRVIELRKIRSTDIGKLITIDGILVKVTPVKERIYKATYKHIHPDCMQEFEWPEDEEMPEVLEMPTICPKCGKPGQFRLIPEKTKLIDWQKAVIQERPEEVPSGQLPRQLEIILEDDLVDSARPGDRVKVTGILDIKQDSPVKRGSRAVFDIYMKVSSIEVSQKVLDEVIISEEDEKKIKDLAKDPWIRDRIISSIAPSIYGHWELKEALALALFGGVPKVLEDTRIRGDIHILIIGDPGTAKSQMLQFISRVAPRAVYTTGKGSTAAGLTAAVVREKGTGEYYLEAGALVLADGGIAVIDEIDKMRDEDRVAIHEAMEQQTVSIAKAGIVAKLNARAAVIAAGNPKFGRYISERPVSDNINLPPTILSRFDLIFILKDQPGEQDRELANYILDVHSGKSTKNIIDIDTLRKYIAYARKYVTPKITSEAKNLITDFAVEMRKKSSETPDSPILITPRQLEALIRISEAYAKMALKAEVTREDAERAINIMRLFLESVGVDMESGKIDIDTIMTGKPKSAREKMMKIIEIIDSLAVSSECAKVKDILKEAQQVGIEKSNIEKLLTDMRKSGIIYEAKPECYKKV | 6 and 8 | ~3 |
| ssoMCM G485P/G501P mutant (alpha5-linker mutant, full length) (natural protein, Sulfolobus solfataricus, UniProt Q9UXG1 1-686, looked up) MEIPSKQIDYRDVFIEFLTTFKGNNNQNKYIERINELVAYRKKSLIIEFSDVLSFNENLAYEIINNTKIILPILEGALYDHILQLDPTYQRDIEKVHVRIVGIPRVIELRKIRSTDIGKLITIDGILVKVTPVKERIYKATYKHIHPDCMQEFEWPEDEEMPEVLEMPTICPKCGKPGQFRLIPEKTKLIDWQKAVIQERPEEVPSGQLPRQLEIILEDDLVDSARPGDRVKVTGILDIKQDSPVKRGSRAVFDIYMKVSSIEVSQKVLDEVIISEEDEKKIKDLAKDPWIRDRIISSIAPSIYGHWELKEALALALFGGVPKVLEDTRIRGDIHILIIGDPGTAKSQMLQFISRVAPRAVYTTGKGSTAAGLTAAVVREKGTGEYYLEAGALVLADGGIAVIDEIDKMRDEDRVAIHEAMEQQTVSIAKAGIVAKLNARAAVIAAGNPKFGRYISERPVSDNINLPPTILSRFDLIFILKDQPPEQDRELANYILDVHSPKSTKNIIDIDTLRKYIAYARKYVTPKITSEAKNLITDFFVEMRKKSSETPDSPILITPRQLEALIRISEAYAKMALKAEVTREDAERAINIMRLFLESVGVDMESGKIDIDTIMTGKPKSAREKMMKIIEIIDSLAVSSECAKVKDILKEAQQVGIEKSNIEKLLTDMRKSGIIYEAKPECYKKV |  | ~3 |
